Test results from article PMC7935256 (PLoS Pathogens, 2021).

Assays:
Test in all cases: BLI
Details in all cases: both partners purified
[1] = target: T1, DENV1 WestPac74 strain recombinant E protein ectodomain (residues 1-394) (dengue virus serotype 1, strain WestPac …)
T1 construct: also called DENV1 WestPac 74 rE protein; Western Pacific 1974

[2] = target: T2, DENV2 PVP94/07 strain recombinant E protein ectodomain (residues 1-394) (dengue virus serotype 2, strain PVP94/07)
T2 construct: also called DENV2 PVP94/07 rE protein

[3] = target: DENV2 NGC strain recombinant E protein ectodomain (residues 1-394) (dengue virus serotype 2, strain NGC)

B1: human monoclonal antibody (HMAb) 1C19, IgG (antibody, V domains shown)
VH: QVQLVESGGGVVQPGRSLRLSCAASGFIFSNYGMHWVRQAPGKGLEWVAVISYDGSDKRYADSVRGRFTISRDNSKNTLFLQVTSLRAEDTAVYYCAKELSGYDPGFEYWGQGTPVTVSS
VL: DIQMTQSPSTLSASVGDRVTITCRASQSINTWLAWYQQKPGKAPKLLIYKASSLESGVPSRFSGSGSGTEFTLTISSLQPDDFATYYCQQYESYATFGQGTKVDIK
notes: also called IgG 1C19
- Kd [1]: 0.844 nM
- Kd [2]: 19 nM
- Kd [3]: 4.55 nM
